B1: truncated NanR construct NanR^33–263 (domain or fragment, E. coli K12, UniProt P0A8W0 33-263, looked up)
chain: SEMVEEELEQMIRRREFGEGEQLPSERELMAFFNVGRPSVREALAALKRKGLVQINNGERARVSRPSADTIIGELSGMAKDFLSHPGGIAHFEQLRLFFESSLVRYAAEHATDEQIDLLAKALEINSQSLDNNAAFIRSDVDFHRVLAEIPGNPIFMAIHVALLDWLIAARPTVTDQALHEHNNVSYQQHIAIVDAIRRHDPDEADRALQSHLNSVSATWHAFGQTTNKKK
notes: amplified from nanR and cloned into pET28a; No tag is named
B2: Escherichia coli Nan repressor (NanR) (natural protein, E. coli K12, UniProt P0A8W0 1-263, looked up)
chain: MGLMNAFDSQTEDSSPAIGRNLRSRPLARKKLSEMVEEELEQMIRRREFGEGEQLPSERELMAFFNVGRPSVREALAALKRKGLVQINNGERARVSRPSADTIIGELSGMAKDFLSHPGGIAHFEQLRLFFESSLVRYAAEHATDEQIDLLAKALEINSQSLDNNAAFIRSDVDFHRVLAEIPGNPIFMAIHVALLDWLIAARPTVTDQALHEHNNVSYQQHIAIVDAIRRHDPDEADRALQSHLNSVSATWHAFGQTTNKKK
notes: NanR, GntR-type transcriptional repressor of E. coli K12; the synthesised nanR gene in pET28a; the dimer mass used (59 kDa) fits an untagged chain; Expressed with 100 uM ZnCl2; carries Zn2+; For the crystals the protein was treated in situ with chymotrypsin, and the cut limits are not known; also called wild-type NanR; E. coli NanR

Assays:
[1] = target: the molecule itself; test: AUC; multiwavelength sedimentation velocity (220-300 nm) of protein titrated against (GGTATA)3-repeat DNA, 50 mM sodium phosphate pH 7.4, 150 mM NaCl, 20 °C; oligomer told from the molar ratio of protein to DNA in co-migrating peaks
[2] = target: the molecule itself; test: AUC; sedimentation velocity, absorbance at 280 nm, NanR alone at 3.3, 10 and 30 uM in 20 mM Tris-HCl pH 8.0, 150 mM NaCl, 20 °C, 50,000 rpm

Row | Protein | binding result [1] | stoichiometry N [2]
1 | B1 | binds | –
2 | B2 | – | 2
